Results from the DeepSol protein solubility set.

Assay: soluble on expression in E. coli; label from the status in PepcDB or PDB records
With “GPLDLSRDECKRILRKLELEAYAGVISALRAQGDLTKEKKDLLGELSKVLSISTERHRAEVRRAVNDERLTTIAHNMSGPNSSSEWSIEGRRLVPLMPRLVPQTAFTVTANAVANAAIQHNASLPVPAETGSK” the “soluble on expression in E. coli” value was “soluble”. With “GPLGSEVKKKKNKKKNKKVNGLPPEIAAVPELAKYWAQRYRLFSRFDDGIKLDREGWFSVTPEKIAEHIAGRVSQSFKCDVVVDAFCGVGGNTIQFALTGMRVIAIDIDPVKIALARNNAEVYGIADKIEFICGDFLLLASFLKADVVFLSPPWGGPDYATAETFDIRTMMSPDGFEIFRLSKKITNNIVYFLPRNADIDQVASLAGPGGQVEIEQNFLNNKLKTITAYFGDLIRRPASET” the “soluble on expression in E. coli” value was “soluble”. With “GPLGSEWYYGNVTRHQAECALNERGVEGDFLIRDSESSPSDFSVSLKASGKNKHFKVQLVDNVYCIGQRRFHTMDELVEHYKKAPIFTSEHGEKLYLVRALQ” the “soluble on expression in E. coli” value was “soluble”. In the case of “GPLGSKLNDILHVYEKSKERELQSQLFNAWRNRFCFYTEECNIQAISKRNYQLEKMVLKKFRERLLEIVKSEE”, the “soluble on expression in E. coli” value is reported as “soluble”. In the case of “GPLGSMADSQDPLHERTRRLLSDYIFFCAREPDTPEPPPTSVEAALLRSVTRQIQQEHQEFFSSFCESRGNRLELVKQMADKLLSKDQDFSWSQLVMLLAFAGTLMNQGPYMAVKQKRDLGNRVIVTRDCCLIVNFLYNLLMGRRHRARLEALGGWDGFCRFFKNPLPLG”, the “soluble on expression in E. coli” value is reported as “soluble”. In the case of “GPLGSMASKKVCIVGSGNWGSAIAKIVGGNAAQLAQFDPRVTMWVFEEDIGGKKLTEIINTQHENVKYLPGHKLPPNVVAVPDVVQAAEDADILIFVVPHQFIGKICDQLKGHLKANATGISLIKGVDEGPNGLKLISEVIGERLGIPMSVLMGANIASEVADEKFCETTIGCKDPAQGQLLKELMQTPNFRITVVQEVDTVEICGALKNVVAVGAGFCDGLGFGDNTKAAVIRLGLMEMIAFAKLFCSGPVSSATFLESCGVADLITTCYGGRNRKVAEAFARTGKSIEQLEKELLNGQKLQGPETARELYSILQHKGLVDKFPLFMAVYKVCYEGQPVGEFIHCLQNHPEHM”, the “soluble on expression in E. coli” value is reported as “soluble”. With “GPLGSNIEQYIHDLDSNSFELDLQFSEDEKRLLLEKQAGGNPWHQFVENNLILKMGPVDKRKGLFARRRQLLLTEGPHLYYVDPVNKVLKGEIPWSQELRPEAKNFKTFFVHTPNRTYYLMDPSGNAHKWCRKIQEVWRQRYQSHPDAAVQ” the “soluble on expression in E. coli” value was “soluble”. For “GPLGSPILELKEKIQPEILELIKQQRLNRLVEGTCFRKLNARRRQDKFWYCRLSPNHKVLHYGDLEESPQGEVPHDSLQDKLPVADIKAVVTGKDCPHMKEKGALKQNKEVLELAFSILYDSNCQLNFIAPDKHEYCIWTDGLNALLGK”, the “soluble on expression in E. coli” value was “soluble”. For “GPYGAPAGPLIVPYNLPLPGGVVPRMLITILGTVKPNANRIALDFQRGNDVAFHFNPRFNENNRRVIVCNTKLDNNWGREERQSVFPFESGKPFKIQVLVEPDHFKVAVNDAHLLQYNHRVKKLNEISKLGISGDIDLTSASYTMI”, the “soluble on expression in E. coli” value was “soluble”. With “GQLAQDGVPEWFHGAISREDAENLLESQPLGSFLIRVSHSHVGYTLSYKAQSSCCHFMVKLLDDGTFMIPGEKVAHTSLDALVTFHQQKPIEPRRELLTQPCRQKD” the “soluble on expression in E. coli” value was “soluble”. For “GRAGGRTLGEQWKEKLNAMGKEEFFSYRKEAILEVDRTEARRARREGNKVGGHPVSRGTAKLRWLVERRFVQPIGKVVDLGCGRGGWSYYAATMKNVQEVRGYTKGGPGHEEPMLMQSYGWNIVTMKSGVDVFYKPSEISDTLLCDIGESSPSAEIEEQRTLRILEMVSDWLSRGPKEFCIKILCPYMPKVIEKLESLQRRFGGGLVRVPLSRNSNHEMYWVSGASGNIVHAVNMTSQVLIGRMDKKIWKGPKYEEDVNLGSGTRAVGK”, the “soluble on expression in E. coli” value was “soluble”. In the case of “GSAQLLKSVFVKNVGWATQLTSGAVWVQFNDGSQLVMQAGVSSISYTSPDGQTTRYGENEKLPEYIKQKLQLLSSILLMFSNPTPVFQ”, the “soluble on expression in E. coli” value is reported as “soluble”. For “GSARDISSTNVTDLTVSPSKIEDGGKTTVKMTFDDKNGKIQNGDMIKVAWPTSGTVKIEGYSKTVPLTVKGEQVGQAVITPDGATITFNDKVEKLSDVSGFAEFEVQGRNLTQTNTSDDKVATITSGNKSTNVTVHKSEAGTSSVFYYKTGDMLPEDTTHVRWFLNINNEKSYVSKDITIKDQIQGGQQLDLSTLNINVTGTHSNYYSGQSAITDFEKAFPGSKITVDNTKNTIDVTIPQGYGSYNSFSINYKTKITNEQQKEFVNNSQAWYQEHGKEEVNGKSFNHTVHNINANAGIEGTVK”, the “soluble on expression in E. coli” value was “soluble”. For “GSCSSKPANTAKGEKGSDKTGKDLELKLSFQEGIAPGESLNEKLDFMEKLGVVGFEPGGGGLAGRVNEIKQALNGRNIKVSAICAGFKGFILSTDPAIRKECMDTMKEIIAAAGELGSTGVIIVPAFNGQVPALPHTMETRDFLCEQFNEMGTFAAQHGTSVIFEPLNRKECFYLRQVADAASLCRDINNPGVRCMGDFWHMTWEETSDMGAFISGGEYLQHVHVASRKRRSMPGEDGDADNYINGFKGLKMIGYNNYVSFECGCQGDRNVVVPAAVKLLREQWEQA”, the “soluble on expression in E. coli” value was “soluble”. In the case of “GSEDTMDRINKDHDHTTSVASRFILADVITSTAFSNASGDINTYASSYIEYEVGVDNQLYYAEVRENEPSSSSTFNNSWNGIYSSLKNARIIIDQCGEGGRDHGNDVTRGMAEVMAAYNCALIADFFGDAPCSQAALVDEKGSPVYMTPKMDTQQEIYTQIISYLDDAIANLQKEDLADVTEQDFLYAGDADKWLKFAYGLKARYTMRLINRSSNKSADYEKVLDYVSKSFTSADDQAAFDIYDSNNINPFYGFYNSRAGFGASTSLGTKLLAYNDPRANRAFFTPIVDKKRSQVAANDPSLVPAPNGSPDQSTSKYGISAFVYAKTAPTLLMSYHELMFLKAEALCRLNRDAEDALKEAVVAGLLNAENSISIAIKELGSGLNTNSSEVITETSAGKYFDDVVKAKYAANPLQETMIQKYLAMWGASGEATETYNDFRRMKGLNENFITLTNPNNSSKFPLRYPYGNSDTAANPEVKAAYGNGDYVYSEPVWWAGGSR”, the “soluble on expression in E. coli” value is reported as “soluble”. For “GSENIYTTLKFESMMQQRVIQIRSIPEEEYHELVSVQFKTDGGKYEKGEKQDLELSEKKTENGKDTESWGWNENQDSDEHDGWDEELDIDVDNVPIQVSVFVQSAAKVFTEFEQGCDTIGRSKVESIYLYKFNLLQTAFFAMVSEKVNDWTQLYKDVRYLYTENPKLLQLMELNSRRLDLNLNLIKKTIYKLVNDQLQELKDNERTPDWDITISSLLPYLKKTALPTLYKLEDNTILVALIRYIVHDLVIDNILHWRVISEKSSENLSEFIMLLLSGLEIPRLNLIETYRHSREKLGILSKILTAHLKDILEMFYEGEFFLFETDEIVQWIILLFADTPTRRDCIDEIRRVREEATD”, the “soluble on expression in E. coli” value was “soluble”. For “GSFEEDLSQKNTWWSRGIYELLGYTPFEVEPRAELFFQHIKEPHRTLIKEHYLHLNQSQETQYISEDYEILTKKGEGRWLNSSVKLIRDEKGTLLKAQGAILDVT”, the “soluble on expression in E. coli” value was “not soluble”. In the case of “GSFLPNSEQQKSVDIVFSSPQDLTVSLIPVSGLKAGKNAPSAKIAKLVVNSTTLKEFGVRGISNNVVDSTGTAWRVAGKNTGKEIGVGLSSDSLRRSDSTEKWNGVNWMTFNSNDTLDIVLTGPAQNVTADTYPITLDVVGYQP”, the “soluble on expression in E. coli” value is reported as “soluble”. For “GSGMEQFPKETVVESSGPKVLETAEEIQERRQEVLTRYQSFKERVAERGQKLEDSYHLQVFKRDADDLGKWIMEKVNILTDKSYEDPTNIQGKYQKHQSLEAEVQTKSRLMSELEKTREERFTMGHSAHEETKAHIEELRHLWDLLLELTLEKGDQLLRAL”, the “soluble on expression in E. coli” value was “soluble”. With “GSGSRMKTVDKSKTLTKFEEFFSLQDYKDRVFEAIEKYPNVRSIEVDYLDLEMFDPDLADLLIEKPDDVIRAAQQAIRNIDRLRKNVDLNIRFSGISNVIPLRELRSKFIGKFVAVDGIVRKTDEIRPRIVKAVFECRGCMRHHAVTQSTNMITEPSLCSECGGRSFRLLQDESEFLDTQTLKLQEPLENLSGGEQPRQITVVLEDDLVDTLTPGDIVRVTGTLRTVRDERTKRFKNFIYGNYTEFLEQEFEELQISEEDEEKIKELAGDPNIYEKIIR” the “soluble on expression in E. coli” value was “soluble”. For “GSGTMEKGTFTLKDIYKQIEAMNKMGPVRKIFEMLPFGLGLKVDNDVMEMTQEKMKKFRVIMDSMTEEELLNPKIIDSSRIRRIAIGSGTSPQEVKELLNYYKTMKNLMKKMKKNKLPI”, the “soluble on expression in E. coli” value was “soluble”. In the case of “GSHGGIEGVKGAASGVVGELARARLALDERGQKLSDLEERTAAMMSSADSFSKHAHEMMLKYK”, the “soluble on expression in E. coli” value is reported as “soluble”. For “GSHMAMAYVIRDEWGNQIWICPGCNKPDDGSPMIGCDDCDDWYHWPCVGIMAAPPEEMQWFCPKCANKIKKDKKH”, the “soluble on expression in E. coli” value was “soluble”. In the case of “GSHMASGDATDITIYYKTGWTHPHIHYSLNQGAWTTLPGVPLTKSEYEGYVKVTIEAEEGSQLRAAFNNGSGQWDNNQGRDYDFSSGVHTLADGRILSGTPK”, the “soluble on expression in E. coli” value is reported as “soluble”. In the case of “GSHMENYHAGPGISKSQLDDIADTPALYLWRKNAPVDTTKTKTLDLGTAFHCRVLELEEFSNRFIVAPEFNRRTNAGKEEEKAFLMECASTGKTVITAEEGRKIELMYQSVMALPLGQWLVESAGHAESSIYWEDPETGILCRCRPDKIIPEFHWIMDVKTTADIQRFKTAYYDYRYHVQDAFYSDGYEAQFGVQPTFVFLVASTTIECGRYPVEIFMMGEEAKLAGQQEYHRNLRTLSDCLNTDEWPAIKTLSLPRWAKEYAND”, the “soluble on expression in E. coli” value is reported as “soluble”. With “GSHMEQDLKTLPTTKITCPKCGNDTAYWWEMQTRAGDEPSTIFYKCTKCGHTWRSYE” the “soluble on expression in E. coli” value was “soluble”. For “GSHMGHIIDISKWNGDINWSIAKQHIDFIIARVQDGSNYVDPLYKGYVQAMKQHGIPFGNYAFCRFVSIADAKKEAQDFWNRGDKSATVWVADVEVKTMNDMRAGTQAFIDELYRLGAKKVGLYVGHHMYTPFGMANVKSDFVWIPRYGGNKPAYPCDIWQYTETGNVPGIGKCDLNSLIGNKSLSWFTESA”, the “soluble on expression in E. coli” value was “soluble”. For “GSHMMKVEKEIKTNQDIDVVMTIFSDPAFTIPQIFPGIASIKCIEPEIFEAEGKFLAFSYKVKGRVYKGVDEVRIIYDSDRGNGILYIRKKDNNTLQIILEHDNKLTAFLGKPYVSSNLDRLAENIDEIIRLERIKRKI”, the “soluble on expression in E. coli” value was “soluble”. With “GSHMNNEDFSQWSVDDVITWCISTLEVEETDPLCQRLRENDIVGDLLPELCLQDCQDLCDGDLNKAIKFKILINKMRDSKLEWKD” the “soluble on expression in E. coli” value was “soluble”. In the case of “GSHMSKSDVFHLGLTKNDLQGATLAIVPGDPDRVEKIAALMDKPVKLASHREFTTWRAELDGKPVIVCSTGIGGPSTSIAVEELAQLGIRTFLRIGTTGAIQPHINVGDVLVTTASVRLDGASLHFAPLEFPAVADFECTTALVEAAKSIGATTHVGVTASSDTFYPGQERYDTYSGRVVRHFKGSMEEWQAMGVMNYEMESATLLTMCASQGLRAGMVAGVIVNRTQQEIPNAETMKQTESHAVKIVVEAARRLL”, the “soluble on expression in E. coli” value is reported as “soluble”. In the case of “GSHMSQPRPLLSPPETEEQLLAQAQQLSGYTLGELAALVGLVTPENLKRDKGWIGVLLEIWLGASAGSKPEQDFAALGVELKTIPVDSLGRPLETTFVCVAPLTGNSGVTWETSHVRHKLKRVLWIPVEGERSIPLAQRRVGSPLLWSPNEEEDRQLREDWEELMDMIVLGQVERITARHGEYLQIRPKAANAKALTEAIGARGERILTLPRGFYLKKNFTSALLARHFLIQ”, the “soluble on expression in E. coli” value is reported as “soluble”. For “GSHMVPEPDLPHDLRHLNTEPMEIFRNSVKIEEIMPNGDPLLAGQNTVDEVYVSRPS”, the “soluble on expression in E. coli” value was “soluble”.
